The record followed here is the supplement of paper PMC12042874.

± gives the uncertainty stated by the source.

A short description of the series: amyloid nucleation score (Sup35N fusion, yeast selection) (log enrichment); library NNK1; higher = more nucleation; inactive = no reads after selection. Put shortly:
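Sup35N fusions to peptides of 20 random codons were expressed in psi-negative yeast, induced 24 hours with 100 μM copper sulfate, and grown 7 days at 30°C on medium lacking adenine and uracil. Input and output plasmid inserts were sequenced by Illumina. The nucleation score is the DiMSum log enrichment of output over input reads, centred on the mode score of non-aggregating sequences. Sequences with under 100 input reads were excluded.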
The substance KGDVPGYARCEVKTVRTFWM returned an amyloid nucleation score of 0.231 ± 0.41. Under KGFLRFG stands 0.333 ± 0.38. Under KGKAAT stands -0.534 ± 0.87; under KGLCDNVMDLVRLKGGSEAG, 0.443 ± 0.42. In the case of KGLEPLCLRSFFLWRERFRD, the amyloid nucleation score is -0.686 ± 0.49. For the substance KGLGRF, the amyloid nucleation score was -0.788 ± 0.74. As to KGLLTGSCVDSS, the amyloid nucleation score was -0.015 ± 0.51. KGWLKTGVYGHVSFVGNIME gave an amyloid nucleation score of 0.467 ± 0.75. In the case of KHCTRFRVRRMYYDVTKILL, the amyloid nucleation score entry was “inactive”.

As to KHSGFQTCVNYLD, the amyloid nucleation score is -0.194 ± 0.42.

Substance KIGLPGLCVW gave an amyloid nucleation score of 0.063 ± 0.54. On to KIGWL, for which the amyloid nucleation score is -0.555 ± 0.58.

For the substance KKGVIGKG, the amyloid nucleation score was -2.31 ± 1.6. As for KKLVA, the amyloid nucleation score is 0.286 ± 0.43.

Turning to KKPCVTGYRKNRWEELEP, the amyloid nucleation score is -0.393 ± 0.42. KKPQSGSCTRLSSESYKSVY yielded an amyloid nucleation score of 0.464 ± 0.82. With KKRPPAPSMEVRLGARMVAG, the amyloid nucleation score came out at 0.324 ± 1. For KLGTPLRQSDVS, the amyloid nucleation score is -0.461 ± 0.59.

As for KLIRYYRFACVMSFRVFYSF, the amyloid nucleation score entry is “inactive”.

Regarding KLIYLMGPIPWVLRSCWQVF, the amyloid nucleation score is 0.208 ± 0.37. Take KLSGFKFEVTCDGHEFWGHP: the amyloid nucleation score is 1.08 ± 0.54. For the substance KLSSKWTRACRHNSC, the amyloid nucleation score is -0.134 ± 1.3. Under KLVVKWRGFLEDGDRTLWLV stands 3.49 ± 0.13; under KMFVIVWCDFDAGALGATVN, -0.488 ± 0.58. The substance KMKSEDT came in with an amyloid nucleation score of 1.07 ± 0.25. For the substance KMLNISGDTMWYVILVLRYV, the amyloid nucleation score is -0.292 ± 0.56.

Substance KMTCSPSH came in with an amyloid nucleation score of 0.867 ± 0.88.

Regarding KNCPALRSFSSKDSSSFVWS, the amyloid nucleation score is -0.23 ± 0.43.

With KNPLVIKKRF, the amyloid nucleation score came out at 0.204 ± 0.59. KNWARIMRNRNYSVSAILW: the amyloid nucleation score came to 0.163 ± 0.61. Turning to KPGFYT, the amyloid nucleation score was -0.705 ± 0.92. KPKCNHRDRTSLEILRNNAL returned an amyloid nucleation score of 1.35 ± 0.43.

As to KPLCLNYKCLYIILVCVGDP, the amyloid nucleation score turned out to be 0.151 ± 0.27. With KQCGVKWFMAG, the amyloid nucleation score is 0.437 ± 1.4. As to KREKEYFNERLPTDLSLQRC, the amyloid nucleation score was -1.21 ± 0.66. For the substance KRGLAVLGAPKQMQTACWGQ, the amyloid nucleation score was determined as 0.229 ± 0.83.

As to KRIVCMFSWPSLT, the amyloid nucleation score was -0.921 ± 0.88.

As to KRSNSFL, the amyloid nucleation score is 0.319 ± 0.27. To KRTESKLDYFKVRLCRTRFS belongs 0.122 ± 0.43; to KRTLYSSIRF, 1.74 ± 0.15. Consider KSLVNNCDSVIAL, for which the amyloid nucleation score is 0.506 ± 0.25. In the case of KSRFSDGGSSWFCGTFMFYT, the amyloid nucleation score is -0.723 ± 0.42.

Regarding KSRRSCQQLIIVKHVVHARR, the amyloid nucleation score turned out to be 4.08 ± 0.061. To KSSGALDMFSDTNMV belongs -0.894 ± 0.39; to KSTLVKHLNQYYRLVLMGPL, 1.1 ± 0.54; to KSTSYNLIDIMAGSSLTNNR, 0.274 ± 0.28. Under KSTTYKNLPSHGLRNSICTK stands 0.842 ± 0.69; under KSYNWDYGHLRVNYGGHMMI, -0.544 ± 1.4; under KSYYGSLNLAMSTSLYIQTM, 0.769 ± 0.34. To KTFTNGLCDPDVYGTIWAM belongs 0.488 ± 0.36; to KTFVPWISCATSIEVFYVAS, 1 ± 0.54; to KTGCVGTS, “inactive”. KTLSLLIL gave an amyloid nucleation score of 0.387 ± 0.37. As to KTTLCM, the amyloid nucleation score was -0.088 ± 0.39. On to KTWLIG, for which the amyloid nucleation score is 0.109 ± 0.54.

For the substance KTWRHSFLYFLTGIESRKGA, the amyloid nucleation score came to 0.094 ± 0.26. Consider KVALESSRAV, for which the amyloid nucleation score came out at 0.036 ± 0.88. Under KVASSDMSDLSTH stands “inactive”. To KVFGTRPSQCLGFN belongs -0.806 ± 0.65; to KVFISCYLWYA, 3.8 ± 0.072. Turning to KVIRVYRADCCFTGWHFAVA, the amyloid nucleation score is -0.224 ± 0.77. Substance KVISFYS returned an amyloid nucleation score of 3.21 ± 0.083. In turn, KVLITCCGPKWSCSLAPDEL yielded an amyloid nucleation score of 0.668 ± 0.58. Turning to KVLLIRWDLLC, the amyloid nucleation score is 0.291 ± 0.46. KVLNILYWGRTDVG came in with an amyloid nucleation score of 1.41 ± 0.33.

Turning to KVLNVCRL, the amyloid nucleation score result was “inactive”. As to KVLSIRWECPLECFALQSYV, the amyloid nucleation score was 0.042 ± 0.32. For the substance KVLSYWDVSWGMASRFVSCY, the amyloid nucleation score turned out to be 0.724 ± 0.49. Regarding KVPYLVDYISLVFFVFKVLF, the amyloid nucleation score was -0.388 ± 0.34. In the case of KWNLGYIYMYRATIK, the amyloid nucleation score was determined as 1.44 ± 0.84. To KWQEQGVIFSNFLLHRHWDV belongs -1.23 ± 1.6; to KYDRNFNTRWGTKDVWTLAD, -0.065 ± 0.57; to KYGEVLLVTYTNP, 0.577 ± 0.53. On to KYKFVRANLILFGMVRG, for which the amyloid nucleation score is -0.115 ± 0.25. KYSLNM: the amyloid nucleation score was -0.872 ± 1.4. For LAFDYLLKFLDCR, the amyloid nucleation score is -0.47 ± 0.53. Substance LAFTCFH registered an amyloid nucleation score of 0.568 ± 0.28. On to LAGMMHAPVVLGLWSCDGDG, for which the amyloid nucleation score is -0.974 ± 2.4.

Substance LAGMTSKHFTLRMMSHLDSY returned an amyloid nucleation score of 0.043 ± 1.

LAHLCINIVSKCSNSWTIGT had an amyloid nucleation score of 0.55 ± 0.57. For the substance LALVRVIGDKNRWWRILSVW, the amyloid nucleation score came to 0.708 ± 0.58.

In turn, LAMLSNGSFNGLFLLWSRCH showed an amyloid nucleation score of 0.525 ± 0.35.

LANIYSSNVDISFFDPYCST: the amyloid nucleation score was 4.35 ± 0.085. Consider LANLAVHLLGQGETCIQMFL, for which the amyloid nucleation score stood at 1.76 ± 0.4. Substance LAPISSASLQTFPVAIFRFR yielded an amyloid nucleation score of 0.122 ± 0.43. Consider LARDRFTYLAASYPFTPSRA, for which the amyloid nucleation score was -0.761 ± 1.7. In the case of LARLLNGQVGNDYCPGVPGG, the amyloid nucleation score is -0.543 ± 0.4. Under LAWMWYQGVSLRNKGGGMFY stands -0.659 ± 1; under LAWTSRDWRKFEYIMGIWGI, -1.01 ± 2.4; under LAWYFTPFVDHS, 1.13 ± 0.84. LCARFWDCRFKVQ gave an amyloid nucleation score of 0.142 ± 1.4. Substance LCDDHRPELCVYIVWTVVGE had an amyloid nucleation score of 3.19 ± 0.22. As for LCELNSKAVYGSKMAHCYSS, the amyloid nucleation score is -0.151 ± 0.33.

On to LCGTSGCSIRNLV, for which the amyloid nucleation score amounted to 0.026 ± 0.46. LCKIKESNDLFSARSIVAHQ had an amyloid nucleation score of 1.06 ± 0.59. As for LCLDKQSSCGSMMSGIYDLM, the amyloid nucleation score is -0.064 ± 0.28.

As to LCMLWLKVKRHRDMRSIGIW, the amyloid nucleation score is -0.003 ± 0.42. LCPGNMLLLITDQYSNWEEI showed an amyloid nucleation score of 0.068 ± 0.3. On to LCQSYGCFVPYYLYDFHRVV, for which the amyloid nucleation score worked out at 6.521 ± 0.059. Regarding LCRVVGYRSPHWQVRGLSVV, the amyloid nucleation score is -0.215 ± 1.7.

The substance LCSLVFTIRRTPPWVQSMLR showed an amyloid nucleation score of 0.096 ± 0.8. To LCSWADLDNKDLKSPR belongs 0.102 ± 0.43; to LCVEVS, 0.369 ± 0.42. Consider LCVSCARVKLLNRT, for which the amyloid nucleation score is -0.144 ± 0.55.

On to LCWFWGYVISYREMIYAESV, for which the amyloid nucleation score result is “inactive”. For LDDWRVMLVSANMHHVRC, the amyloid nucleation score was -0.642 ± 0.39.

Substance LDEYINNEDSMFLCGILLSS registered an amyloid nucleation score of 0.2 ± 0.3. Under LDFRGMALENKVLDFRVCSV stands 0.658 ± 0.3; under LDIVWVDSVIVISLMMLTYC, 0.199 ± 0.39; under LDLNRFDPWVVTSLLCFPVA, -1.42 ± 1.5. Under LDRFCYLVYRRRCGYSRWQM stands 0.527 ± 0.39; under LDRLMESGDFGWKYIMG, “inactive”.

The substance LDRVSWSDRKSNGQ registered an amyloid nucleation score of 1.44 ± 0.41. In turn, LDTRSRSYVWSDLLRKAKAK returned an amyloid nucleation score of 0.795 ± 0.6. For the substance LDVFICTADHTVRYLHHTAV, the amyloid nucleation score stood at 1.08 ± 0.66. Turning to LDVLWTGSRSAAA, the amyloid nucleation score was -0.05 ± 0.38. Under LDVNLGYCHVVYWTIVKVRL stands “inactive”; under LEAMPMCGEELRSLYTMVNV, 0.552 ± 0.42; under LEDNMEFDFKSRKDSNLCNG, 0.611 ± 0.34. Take LEGKPSEFYRNFHIYGVVYQ: the amyloid nucleation score is -0.531 ± 1.4.

On to LEINIVACVDTA, for which the amyloid nucleation score is -0.559 ± 0.36. For LESRFRKMFPRVVRDTWGRG, the amyloid nucleation score is -0.628 ± 1.7.

Consider LEWANDLVNCSQRIM, for which the amyloid nucleation score is -0.331 ± 0.88. On to LEYENCHCIILYLKHAQYLL, for which the amyloid nucleation score entry was “inactive”.

As to LEYSS, the amyloid nucleation score is -0.145 ± 0.41. Regarding LEYYLVWYNVYL, the amyloid nucleation score amounted to 0.534 ± 0.19. For the substance LFASESRWSRRYMFPWCRLC, the amyloid nucleation score is -0.445 ± 0.91. LFFQANKLLVIYNCRIYTTF: the amyloid nucleation score was 6.32 ± 0.07.

Take LFFQSDMFGVFCISYTTGVS: the amyloid nucleation score came to 0.323 ± 0.32. The substance LFGTS displayed an amyloid nucleation score of 0.501 ± 0.51.

The substance LFIFFKV yielded an amyloid nucleation score of 0.049 ± 0.51. With LFKFYCKTYHTPLSLIYPFW, the amyloid nucleation score entry is “inactive”.

Consider LFLFLRMLTFVTCLIMRLRV, for which the amyloid nucleation score is -1.73 ± 2.4. For the substance LFLGLPELVQNSLDMLVSLW, the amyloid nucleation score stood at 0.217 ± 0.31. With LFLWDVFGQLAFVRVGTICW, the amyloid nucleation score worked out at 1.14 ± 0.56. Consider LFMLSIHFGVHILSRLW, for which the amyloid nucleation score turned out to be 1.57 ± 0.16. With LFMNCLILRMFTCAFHNSSE, the amyloid nucleation score was found to be 6.39 ± 0.078. Under LFNKNGYNSETRFLFKLGFD stands 1.02 ± 0.56; under LFNMFDQITCIVDSDNYRHA, 0.116 ± 0.25. To LFNWVTSCSGTINGWKIKRH belongs 3.08 ± 0.12; to LFQCASWM, -0.024 ± 0.29.
